Experimental data taken from article PMC8784342, “Investigation of sugar binding kinetics of the E. coli sugar/H^+ symporter XylE using solid-supported membrane-based electrophysiology” (The Journal of Biological Chemistry, 2021).
Values joined by “and” are separate entries in the source; they are usually repeats but may differ in a detail not shown here. Equal entries are not always repeated.

B1: wt FucP (Escherichia coli K-12) (protein)
chain: MGNTSIQTQSYRAVDKDAGQSRSYIIPFALLCSLFFLWAVANNLNDILLPQFQQAFTLTNFQAGLIQSAFYFGYFIIPIPAGILMKKLSYKAGIITGLFLYALGAALFWPAAEIMNYTLFLVGLFIIAAGLGCLETAANPFVTVLGPESSGHFRLNLAQTFNSFGAIIAVVFGQSLILSNVPHQSQDVLDKMSPEQLSAYKHSLVLSVQTPYMIIVAIVLLVALLIMLTKFPALQSDNHSDAKQGSFSASLSRLARIRHWRWAVLAQFCYVGAQTACWSYLIRYAVEEIPGMTAGFAANYLTGTMVCFFIGRFTGTWLISRFAPHKVLAAYALIAMALCLISAFAGGHVGLIALTLCSAFMSIQYPTIFSLGIKNLGQDTKYGSSFIVMTIIGGGIVTPVMGFVSDAAGNIPTAELIPALCFAVIFIFARFRSQTATN
notes: made in house; host or cells: E. coli BL21 DE3
B2: wt LacY (Escherichia coli K-12) (protein)
chain: MYYLKNTNFWMFGLFFFFYFFIMGAYFPFFPIWLHDINHISKSDTGIIFAAISLFSLLFQPLFGLLSDKLGLRKYLLWIITGMLVMFAPFFIFIFGPLLQYNILVGSIVGGIYLGFCFNAGAPAVEAFIEKVSRRSNFEFGRARMFGCVGWALCASIVGIMFTINNQFVFWLGSGCALILAVLLFFAKTDAPSSATVANAVGANHSAFSLKLALELFRQPKLWFLSLYVIGVSCTYDVFDQQFANFFTSFFATGEQGTRVFGYVTTMGELLNASIMFFAPLIINRIGGKNALLLAGTIMSVRIIGSSFATSALEVVILKTLHMFEVPFLLVGCFKYITSQFEVRFSATIYLVCFCFFKQLAMIFMSVLAGNMYESIGFQGAYLVLGLVALGFTLISVFTLSGPGPLSLLRRQVNEVA
notes: made in house; host or cells: E. coli XL1-Blue

Tests used:
Type in all cases: biochemical, Escherichia coli
[1] = substrate: OC1OC[C@@H](O)[C@@H](O)[C@@H]1O; test: SSM-based electrophysiology, proteoliposomes with wt FucP
Experimental: (§1) Reconstitution of purified proteins (2–20 mg/ml) was carried out with E. coli phospholipids (Avanti Polar Lipids, E. coli polar lipid extract). Preformed liposomes (0.2–2 ml, 10 mg/ml) were dissolved in 1% (w/v) n-octyl-β-D-glucoside, and the protein suspension was mixed on ice to a concentration of 0.2 mg protein/mg lipid (LPR 5).
(§2) Wt XylE, wt FucP, and the mutant proteins were reconstituted using overnight incubation in 400 mg/ml BioBeads (SM-2 Adsorbent Media, Bio-Rad) at 4 °C. After reconstitution, the samples were diluted to 2.5 mg/ml lipid concentration, frozen in liquid nitrogen, and stored at −80 °C. For wt LacY and mutant proteins, this procedure was not successful. We, therefore, applied the previously established n-octyl-β-D-glucoside dilution method (1:100) ([69]).
(§3) SSM measurements were performed as described ([20], [23]). After thawing the sample and sonication in a water bath, 30 μl of proteoliposomes (2.5 mg/ml lipid at LPR 5) was allowed to adsorb for 1 to 2 h to an octadecanethiol/phosphatidylcholine hybrid bilayer on a gold surface (the sensor).
(§4) For measurements, a single solution exchange configuration ([23]) was employed that consisted in three phases of 0.5 s duration each: Flow of nonactivating solution (NA), activating solution (A), and nonactivating solution (NA). Only the activating solution contained the sugar. When pH dependence is determined, pH of NA and A solutions during one experiment are kept constant. Between experiments using different pH values, the sensor was incubated at the new pH for 3 min to equilibrate the intraliposomal pH.
(§5) Instruments with different time resolution were used as required. […] Currents were recorded throughout the entire time and amplified with a current amplifier set to a gain of […] and a rise time of 10 ms (low time-resolution set up) or 3 ms (high time-resolution set up).
(§6) All NA solutions were buffered in 100 mM KPi at a given pH value. […] Sugar concentration jumps initiated sugar-proton symport, and charge transfer was measured by capacitive coupling. Therefore, only transient currents were recorded. […]

[2] = substrate: OC[C@@H]1OC(O)[C@@H](O)[C@H](O)[C@@H]1O; test: as above; conditions: other: pH 7.6, minor substrate, peak currents, low time-resolution set up
Experimental: as §1, §2, §3, §4, §5, §6

[3] = substrate: OC[C@H]1O[C@@H](O[C@@H]2[C@@H](CO)O[C@](O)(CO)[C@H]2O)[C@H](O)[C@@H](O)[C@H]1O; test: SSM-based electrophysiology, proteoliposomes with wt LacY
Experimental: as §1
as §2, with “We, therefore, applied the previously established n-octyl-β-D-glucoside dilution method (1:100) ([69]).” left out
For measurements, a single solution exchange configuration ([23]) was employed that consisted in three phases of 0.5 s duration each: Flow of nonactivating solution (NA), activating solution (A), and nonactivating solution (NA). […] When pH dependence is determined, pH of NA and A solutions during one experiment are kept constant. […]
as §5
All NA solutions were buffered in 100 mM KPi at a given pH value. […] Therefore, only transient currents were recorded. […]

[4] = other: pH 7.6, minor substrate, peak currents, low time-resolution set up
[5] = other: pH 7.6, peak currents, Hill equation

| Protein | Km [1, 4] | K0.5 [1, 5] | Km [2] | Km [3, 4] | K0.5 [3, 5] |
| --- | --- | --- | --- | --- | --- |
| B1 | 12.2 ± 2.8 mM | 80 ± 40 mM | 7.4 ± 1.3 mM | – | – |
| B2 | – | – | – | 2.27 ± 0.54 mM and 2.3 ± 0.6 mM | 6.94 ± 3.58 mM |
